{"source": "patent US20170129940A1", "about": "(INSTITUTE FOR RESEARCH IN BIOMEDICINE, published 2017)", "binders": {"B1": {"name": "15D8 (antibody, V domains shown)", "VH": "EVQLVQSGAEVKKPGESLKISCQASGYSFTNYWIAWVRQMPGKGLEWMGIIYPGDSDIKYSPSFRGQVTISADKSISNAFLQWRSLRASDTAMYYCARHAIRGDGFDYWGQGTLVTVSS", "VL": "SYELTQPPSVSVSPGQTATITCSGDKLGEKYACWYQQKPGQSPVLVMYQDTKRPSGIPERFSGSNSGNTATLTISGTRAMDEADYYCQAWDTNTVIFGGGTKLTVL"}, "B2": {"name": "6B4 (antibody, V domains shown)", "VH": "QVQLVESGGGVVQPGRSLRLSCAASGFRFNEFNMHWVRQAPGKGLEWVAVISIDGRHKYNADSVEGRFTISRDNSRNTLYLQMNSLRVEDTALYYCVTDGKAVDGFSGILEFWGQGTPVTVST", "VL": "EIVLTQSPATLSLSPGERATLSCWASQSVGGYLAWYQQKPGQAPRLLIYDASIRATGIPARFSGSGSGTHFTLTINSLEPEDFAVYYCQQRNNWPPLTFGGGTKVEIK", "notes": "human IgG; also called 6B4-biotin"}, "B3": {"name": "6L3 (antibody, V domains shown)", "VH": "EVRLEESGGGLVQPGGSLRLSCAASGFTVSTTYMAWVRQAPGKGLEWVSLIHTGGIFGVGGTSYADSVKGRFTISRDTSKNTVSLQMSSLRVEDTAIYFCAREHRGTIDAFDAWGQGTVVIVSS", "VL": "DIHMTQSPSSLSASVGDRVTITCRASQNIRNYLNWYQHKPGKAPKLLIYTTSRLQSGVPSRFSGSGSGTDFTLTVNSLQPEDFASYYCQQSYDGWTFGQGTKVEMK"}, "B4": {"name": "8I21 (antibody, V domains shown)", "VH": "LVELVESGGGVVQPGRSLRLSCAASGFTFSSDGMHWVRQSPGRGLEWVAFISSDGSTPYYADSVKGRFTISRDNSKNTLYLQMNSLRAEDTAMYFCAKDWALFRWLRTFDHWGQGTLVTVSS", "VL": "not shown"}}, "key": {"[1]": {"biological_target": "T1, hCMV UL128 (expressed in HEK293T cells) (human cytomegalovirus, UniProt P16837 28-171)", "T1 sequence": "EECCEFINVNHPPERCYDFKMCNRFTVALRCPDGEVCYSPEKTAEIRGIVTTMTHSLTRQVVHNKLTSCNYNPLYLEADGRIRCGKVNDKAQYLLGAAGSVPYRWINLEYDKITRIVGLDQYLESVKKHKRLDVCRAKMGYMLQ", "assay": "cell-based or functional assay"}, "[2]": {"biological_target": "T1, hCMV UL128 (expressed in HEK293T cells)", "assay": "cell-based or functional assay", "remark": "listed apart in the source"}, "[3]": {"biological_target": "T2, hCMV gB (expressed in HEK293T cells) (human cytomegalovirus, UniProt P06473 32-906)", "T2 sequence (P06473 32-906 limits assumed)": "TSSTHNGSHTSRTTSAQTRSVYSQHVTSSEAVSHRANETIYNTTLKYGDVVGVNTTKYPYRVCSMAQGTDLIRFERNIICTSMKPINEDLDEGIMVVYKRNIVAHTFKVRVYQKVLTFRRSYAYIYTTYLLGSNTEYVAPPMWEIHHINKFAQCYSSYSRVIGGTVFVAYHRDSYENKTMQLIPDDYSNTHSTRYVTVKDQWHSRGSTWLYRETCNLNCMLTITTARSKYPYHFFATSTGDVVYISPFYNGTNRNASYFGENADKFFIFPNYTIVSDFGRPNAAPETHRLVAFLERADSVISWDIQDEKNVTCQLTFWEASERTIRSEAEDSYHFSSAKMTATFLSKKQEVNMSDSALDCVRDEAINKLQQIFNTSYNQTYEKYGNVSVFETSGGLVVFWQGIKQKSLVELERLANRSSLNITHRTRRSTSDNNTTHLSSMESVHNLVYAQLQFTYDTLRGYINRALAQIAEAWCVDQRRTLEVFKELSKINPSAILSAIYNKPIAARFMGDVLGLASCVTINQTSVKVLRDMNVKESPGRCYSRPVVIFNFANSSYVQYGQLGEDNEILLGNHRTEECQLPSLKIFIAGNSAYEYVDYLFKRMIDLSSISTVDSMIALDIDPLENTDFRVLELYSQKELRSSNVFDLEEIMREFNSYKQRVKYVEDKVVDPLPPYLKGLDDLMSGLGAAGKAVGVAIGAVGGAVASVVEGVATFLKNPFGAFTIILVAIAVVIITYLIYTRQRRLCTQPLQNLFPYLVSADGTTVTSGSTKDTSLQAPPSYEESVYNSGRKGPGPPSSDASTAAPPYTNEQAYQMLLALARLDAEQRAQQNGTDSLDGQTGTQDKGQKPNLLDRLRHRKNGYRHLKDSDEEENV", "assay": "cell-based or functional assay"}, "[4]": {"biological_target": "T2, hCMV gB (expressed in HEK293T cells)", "assay": "competitor: 6B4-biotin; cell staining"}, "[5]": {"biological_target": "T2, hCMV gB (expressed in HEK293T cells)", "assay": "competitor: 5F1-biotin; cell staining"}, "[6]": {"biological_target": "T2, hCMV gB (expressed in HEK293T cells)", "assay": "competitor: 4H9-biotin; cell staining"}, "[7]": {"biological_target": "T2, hCMV gB (expressed in HEK293T cells)", "assay": "competitor: 10C6-biotin; cell staining"}, "[8]": {"biological_target": "T2, hCMV gB (expressed in HEK293T cells)", "assay": "cell-based or functional assay", "remark": "listed apart in the source"}, "[9]": {"biological_target": "T2, hCMV gB (expressed in HEK293T cells)", "assay": "cell-based or functional assay", "remark": "listed apart in the source"}, "[10]": {"biological_target": "T2, hCMV gB (expressed in HEK293T cells)", "assay": "competitor: 7H3-biotin; cell staining"}, "[11]": {"biological_target": "T2, hCMV gB (expressed in HEK293T cells)", "assay": "competitor: 2B11-biotin; cell staining"}, "[12]": {"biological_target": "T3, hCMV gM + gN (co-expressed in HEK293T cells) (human cytomegalovirus, UniProt P16733 1-372; P16795 22-138)", "T3 sequence 1": "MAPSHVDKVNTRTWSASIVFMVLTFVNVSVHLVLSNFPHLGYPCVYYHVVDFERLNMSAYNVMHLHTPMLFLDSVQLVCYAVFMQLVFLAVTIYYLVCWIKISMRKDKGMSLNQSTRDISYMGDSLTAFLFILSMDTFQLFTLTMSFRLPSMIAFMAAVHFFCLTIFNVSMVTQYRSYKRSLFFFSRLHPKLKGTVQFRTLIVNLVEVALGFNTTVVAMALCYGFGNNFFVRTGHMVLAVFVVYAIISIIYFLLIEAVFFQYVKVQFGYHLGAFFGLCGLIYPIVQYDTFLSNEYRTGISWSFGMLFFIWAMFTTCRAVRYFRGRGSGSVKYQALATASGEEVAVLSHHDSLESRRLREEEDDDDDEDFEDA", "T3 sequence 2": "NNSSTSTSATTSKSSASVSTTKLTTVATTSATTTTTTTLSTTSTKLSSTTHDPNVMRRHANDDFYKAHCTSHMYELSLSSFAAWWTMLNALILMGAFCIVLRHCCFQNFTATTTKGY", "assay": "cell-based or functional assay"}, "[13]": {"biological_target": "T3, hCMV gM + gN (co-expressed in HEK293T …)", "assay": "cell-based or functional assay", "remark": "listed apart in the source"}, "[14]": {"biological_target": "T4, hCMV gH + gL + UL128 + UL130 (co-expressed in HEK293T cells) (human cytomegalovirus, UniProt P12824 24-743; P16832 31-278; P16837 28-171; P16772 1-214)", "assay": "cell-based or functional assay"}, "[15]": {"biological_target": "T4, hCMV gH + gL + UL128 + UL130 …", "assay": "cell-based or functional assay", "remark": "listed apart in the source"}}}
{"binder": "B1", "values": [{"measurement": "90% Neutralization ARPE", "setting": "[1]", "value": 0.008, "unit": "µg/mL"}, {"measurement": "90% Neutralization MRC-9", "setting": "[1]", "value": "> 10", "unit": "µg/mL"}, {"measurement": "50% Neutralization ARPE", "setting": "[2]", "value": "< 0.001", "unit": "µg/mL"}, {"measurement": "50% Neutralization MRC-9", "setting": "[2]", "value": "> 2", "unit": "µg/mL"}]}
{"binder": "B2", "values": [{"measurement": "90% Neutralization ARPE", "setting": "[3]", "value": 0.15, "unit": "µg/mL"}, {"measurement": "90% Neutralization MRC-9", "setting": "[3]", "value": 1, "unit": "µg/mL"}, {"measurement": "Inhibition of binding (%)", "setting": "[4]", "value": 100, "unit": "%"}, {"measurement": "Inhibition of binding (%)", "setting": "[5]", "value": 0, "unit": "%"}, {"measurement": "Inhibition of binding (%)", "setting": "[6]", "value": 0, "unit": "%"}, {"measurement": "Inhibition of binding (%)", "setting": "[7]", "value": 0, "unit": "%"}, {"measurement": "50% Neutralization BM-MSC", "setting": "[8]", "value": 2, "unit": "µg/mL"}, {"measurement": "50% Neutralization Mo-DC", "setting": "[8]", "value": 0.11, "unit": "µg/mL"}, {"measurement": "50% Neutralization ARPE", "setting": "[9]", "value": "≤ 2", "unit": "µg/mL"}, {"measurement": "50% Neutralization MRC-9", "setting": "[9]", "value": "≤ 2", "unit": "µg/mL"}, {"measurement": "Inhibition of binding (%)", "setting": "[10]", "value": 0, "unit": "%"}, {"measurement": "Inhibition of binding (%)", "setting": "[11]", "value": 0, "unit": "%"}]}
{"binder": "B3", "values": [{"measurement": "90% Neutralization ARPE", "setting": "[12]", "value": 10, "unit": "µg/mL"}, {"measurement": "90% Neutralization MRC-9", "setting": "[12]", "value": 30, "unit": "µg/mL"}, {"measurement": "50% Neutralization ARPE", "setting": "[13]", "value": "≤ 2", "unit": "µg/mL"}]}
{"binder": "B4", "values": [{"measurement": "90% Neutralization ARPE", "setting": "[14]", "value": 0.03, "unit": "µg/mL"}, {"measurement": "90% Neutralization MRC-9", "setting": "[14]", "value": "> 10", "unit": "µg/mL"}, {"measurement": "50% Neutralization ARPE", "setting": "[15]", "value": "< 0.01", "unit": "µg/mL"}, {"measurement": "50% Neutralization MRC-9", "setting": "[15]", "value": "> 2", "unit": "µg/mL"}]}
